According to US20220186223, “T-LYMPHOCYTE BINDING APTAMERS” (Aummune Ltd., published 2022):

Biological target: CD3 epsilon (CD3ε), recombinant extracellular Fc chimera (Homo sapiens, UniProt P07766 P07766:23-126)
Assay: HPLC size exclusion shift, 1 hr 37 C and 4 C
Conditions: tags: Fc chimera, His tag; Abcam ab220590; label: Cy5 via hybridised CpG'-Cy5 complementary strand
Method: 1 μM of folded Cy5 labeled aptamer was mixed with 50 µL of protein to a final volume of 60 ul and incubated for 1 hr at 4° C. or 37° C. Next, to detect the Cy-labelled aptamers, samples were analyzed at 570 nm absorption via HPLC ProSEC 300S size exclusion column (Agilent).
Top five candidates (CS6, CS7, CS8, CS8c, and CS9 SEQ ID NO. 1-5) were synthesized with a 5(5′) phosphothioated CpG motif and assayed for Human CD3ε (hCD3ε) binding via the HPLC size exclusion column. In this method, the aptamers were labelled with Cy5 complementary sequence to the CpG site (Cy5-CpG′). Then, the folded-labelled candidates are incubated, each, with the CD3ε- recombinant protein or with negative control IgG1 (1 hr at 37° C. and 4° C.) and analyzed by HPLC ProSEC 300S size exclusion column (Agilent) at 570 nm absorption. Upon protein binding, the aptamer-protein complex has a greater mass than a free aptamer and as a result, the retention time (RT) at the column is expected to be shorter. Inversely, in the case of non-binding aptamer, the RT in the presence of protein will be the same as in the absence of the protein. As a control, PolyT sequence was used.

CD3 epsilon (CD3ε), recombinant extracellular Fc chimera, sequence (P07766 23-126, change not shown, one chain of several): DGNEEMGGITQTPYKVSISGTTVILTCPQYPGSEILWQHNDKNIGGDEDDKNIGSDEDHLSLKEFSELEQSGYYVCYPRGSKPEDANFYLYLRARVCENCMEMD

Binding result, binds:
TTGTAAGGACTGCTTAGGATTGCGAAAACAATATTCGTAT (ssDNA, synthesized with 5' CpG motif having 5 PS linkages (extension not in ref)) [CS9]
CATTTCATAGGGCTGCTTAGGATTGCGAAGGTAATGCCAG (ssDNA, synthesized with 5' CpG motif having 5 PS linkages (extension not in ref)) [CS7]
CCCTTACCCCTTTTAGGTCTGCTTAGGATTGCGAAAAAAG (ssDNA, synthesized with 5' CpG motif having 5 PS linkages (extension not in ref)) [CS8]
CTTTTAGGTCTGCTTAGGATTGCGAAAAAAG (ssDNA, synthesized with 5' CpG motif having 5 PS linkages (extension not in ref)) [CS8c (CS8cut)]
